Test results as given in US20220119490A1 (Genentech, published 2022).

T1: AXL extracellular domain (human, UniProt P30530 26-451)
T1 construct: extracellular domain; Biotinylated ectodomain on streptavidin sensors in BLI; streptavidin tetramer in the cell assay; also called UFO; tyrosine-protein kinase receptor AXL
T1 sequence (looked up): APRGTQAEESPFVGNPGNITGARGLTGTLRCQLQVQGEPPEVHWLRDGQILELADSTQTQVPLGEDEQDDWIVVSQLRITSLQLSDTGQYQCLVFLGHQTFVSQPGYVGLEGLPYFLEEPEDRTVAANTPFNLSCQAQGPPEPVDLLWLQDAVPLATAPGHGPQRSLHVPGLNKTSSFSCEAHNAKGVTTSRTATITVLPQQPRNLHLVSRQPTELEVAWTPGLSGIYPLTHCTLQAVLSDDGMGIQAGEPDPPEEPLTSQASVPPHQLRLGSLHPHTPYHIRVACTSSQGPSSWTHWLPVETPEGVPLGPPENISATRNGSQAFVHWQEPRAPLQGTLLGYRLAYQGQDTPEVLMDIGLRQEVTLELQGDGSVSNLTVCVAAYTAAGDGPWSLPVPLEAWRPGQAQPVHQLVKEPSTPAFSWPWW

T2: PD-L2 extracellular domain (human, UniProt Q9BQ51 20-220)
T2 construct: extracellular domain; ECD construct; also called PDCD1LG2; programmed cell death 1 ligand 2
T2 sequence (looked up): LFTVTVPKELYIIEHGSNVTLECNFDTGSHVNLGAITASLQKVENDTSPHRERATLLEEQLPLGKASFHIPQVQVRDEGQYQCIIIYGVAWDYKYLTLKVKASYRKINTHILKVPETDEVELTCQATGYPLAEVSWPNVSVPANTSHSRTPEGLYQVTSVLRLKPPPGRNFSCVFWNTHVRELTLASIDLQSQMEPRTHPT

B1: IL1RL1 extracellular domain (receptor, human, UniProt Q01638 19-328, looked up)
chain: KFSKQSWGLENEALIVRCPRQGKPSYTVDWYYSQTNKSIPTQERNRVFASGQLLKFLPAAVADSGIYTCIVRSPTFNRTGYANVTIYKKQSDCNVPDYLMYSTVSGSEKNSKIYCPTIDLYNWTAPLEWFKNCQALQGSRYRAHKSFLVIDNVMTEDAGDYTCKFIHNENGANYSVTATRSFTVKDEQGFSLFPVIGAPAQNEIKEVEIGKNANLTCSACFGKGTQFLAAVLWQLNGTKITDFGEPRIQQEEGQNQSFSNGLACLDMVLRIADVKEEDLLLQYDCLALNLHGLRRHTVRLSRKNPIDHHS
notes: extracellular domain; Soluble analyte in BLI
B2: CHL1 extracellular domain (receptor, human, UniProt O00533 25-1082, looked up)
chain: IEIPSSVQQVPTIIKQSKVQVAFPFDEYFQIECEAKGNPEPTFSWTKDGNPFYFTDHRIIPSNNSGTFRIPNEGHISHFQGKYRCFASNKLGIAMSEEIEFIVPSVPKFPKEKIDPLEVEEGDPIVLPCNPPKGLPPLHIYWMNIELEHIEQDERVYMSQKGDLYFANVEEKDSRNDYCCFAAFPRLRTIVQKMPMKLTVNSSNSIKQRKPKLLLPPTESGSESSITILKGEILLLECFAEGLPTPQVDWNKIGGDLPKGRETKENYGKTLKIENVSYQDKGNYRCTASNFLGTATHDFHVIVEEPPRWTKKPQSAVYSTGSNGILLCEAEGEPQPTIKWRVNGSPVDNHPFAGDVVFPREISFTNLQPNHTAVYQCEASNVHGTILANANIDVVDVRPLIQTKDGENYATVVGYSAFLHCEFFASPEAVVSWQKVEEVKPLEGRRYHIYENGTLQINRTTEEDAGSYSCWVENAIGKTAVTANLDIRNATKLRVSPKNPRIPKLHMLELHCESKCDSHLKHSLKLSWSKDGEAFEINGTEDGRIIIDGANLTISNVTLEDQGIYCCSAHTALDSAADITQVTVLDVPDPPENLHLSERQNRSVRLTWEAGADHNSNISEYIVEFEGNKEEPGRWEELTRVQGKKTTVILPLAPFVRYQFRVIAVNEVGRSQPSQPSDHHETPPAAPDRNPQNIRVQASQPKEMIIKWEPLKSMEQNGPGLEYRVTWKPQGAPVEWEEETVTNHTLRVMTPAVYAPYDVKVQAINQLGSGPDPQSVTLYSGEDYPDTAPVIHGVDVINSTLVKVTWSTVPKDRVHGRLKGYQINWWKTKSLLDGRTHPKEVNILRFSGQRNSGMVPSLDAFSEFHLTVLAYNSKGAGPESEPYIFQTPEGVPEQPTFLKVIKVDKDTATLSWGLPKKLNGNLTGYLLQYQIINDTYEIGELNDINITTPSKPSWHLSNLNATTKYKFYLRACTSQGCGKPITEESSTLGEGSKGIGKISGVNLTQKTHPIEVFEPGAEHIVRLMTKNWGDNDSIFQDVIETRGREYAGLYDDISTQGW
notes: extracellular domain; Soluble query (streptavidin tetramer) in cell assays; recombinant protein (R&D) in SPR; also called neural cell adhesion molecule L1-like protein; close homolog of L1
B3: CNTN5 expressed on cells (receptor, human, UniProt O94779 19-1072, looked up)
chain: EYSKSLPGLSTSYAALLRIKKSSSSSLFGSKTRPRYSSPSLGTLSASSPSWLGAAQNYYSPINLYHSSDAFKQDESVDYGPVFVQEPDDIIFPTDSDEKKVALNCEVRGNPVPSYRWLRNGTEIDLESDYRYSLIDGTFIISNPSEAKDSGHYQCLATNTVGSILSREATLQFAYLGNFSGRTRSAVSVREGQGVVLMCSPPPHSPEIIYSWVFNEFPSFVAEDSRRFISQETGNLYISKVQTSDVGSYICLVKNTVTNARVLSPPTPLTLRNDGVMGEYEPKIEVHFPFTVTAAKGTTVKMECFALGNPVPTITWMKVNGYIPSKARLRKSQAVLEIPNVQLDDAGIYECRAENSRGKNSFRGQLQVYTYPHWVEKLNDTQLDSGSPLRWECKATGKPRPTYRWLKNGVPLSPQSRVEMVNGVLMIHNVNQSDAGMYQCLAENKYGAIYASAELKILASAPTFALNQLKKTIIVTKDQEVVIECKPQGSPKPTISWKKGDRAVRENKRIAILPDGSLRILNASKSDEGKYVCRGENVFGSAEIIASLSVKEPTRIELTPKRTELTVGESIVLNCKAIHDASLDVTFYWTLKGQPIDFEEEGGHFESIRAQASSADLMIRNILLMHAGRYGCRVQTTADSVSDEAELLVRGPPGPPGIVIVEEITESTATLSWSPAADNHSPISSYNLQARSPFSLGWQTVKTVPEIITGDMESAMAVDLNPWVEYEFRVVATNPIGTGDPSTPSRMIRTNEAVPKTAPTNVSGRSGRRHELVIAWEPVSEEFQNGEGFGYIVAFRPNGTRGWKEKMVTSSEASKFIYRDESVPPLTPFEVKVGVYNNKGDGPFSQIVVICSAEGEPSAAPTDVKATSVSVSEILVAWKHIKESLGRPQGFEVGYWKDMEQEDTAETVKTRGNESFVILTGLEGNTLYHFTVRAYNGAGYGPPSSEVSATTKKSPPSQAPSNLRWEQQGSQVSLGWEPVIPLANESEVVGYKVFYRQEGHSNSQVIETQKLQAVVPLPDAGVYIIEVRAYSEGGDGTASSQIRVPSYSGGKITS
notes: whole, on cells; also called contactin 5
B4: TNFRS11A_DNA742118 (receptor, human, UniProt Q9Y6Q6 30-212, looked up)
extracellular domain construct of the screen: IAPPCTSEKHYEHLGRCCNKCEPGKYMSSKCTTTSDSVCLPCGPDEYLDSWNEEDKCLLHKVCDTGKALVAVVAGNSTTPRRCACTAGYHWSQDCECCRRNTECAPGLGAQHPLQLNKDTVCKPCLAGYFSDAFSSTDKCRPWTNCTFLGKRVEHHGTEKSDAVCSSSLPARKPPNEPHVYLP
notes: extracellular domain; also called TNFRSF11A

How the values were obtained:
[1] = target: T1, AXL extracellular domain; assay: biolayer interferometry, biotinylated AXL ectodomain on streptavidin sensors, IL1RL1 ectodomain in solution
Protocol: Interactions between AXL and the binding partners IL1RL1 and Gas6 were assayed by biolayer interferometry using an Octet Red system, as previously described (Husain et al., Mol Cell Proteomics, 18: 2310-2323, 2019). […] Data were analyzed using Forte Pall (Port Washington, N.Y.) software 9.0.

[2] = target: T3, L1CAM expressed on cells (human, UniProt P32004 20-1257); assay: cell surface interaction assay: streptavidin-tetramerized biotinylated ECD on transfected cells, immunofluorescence
T3 construct: whole, on cells; also called L1 cell adhesion molecule
T3 sequence (P32004 20-1257): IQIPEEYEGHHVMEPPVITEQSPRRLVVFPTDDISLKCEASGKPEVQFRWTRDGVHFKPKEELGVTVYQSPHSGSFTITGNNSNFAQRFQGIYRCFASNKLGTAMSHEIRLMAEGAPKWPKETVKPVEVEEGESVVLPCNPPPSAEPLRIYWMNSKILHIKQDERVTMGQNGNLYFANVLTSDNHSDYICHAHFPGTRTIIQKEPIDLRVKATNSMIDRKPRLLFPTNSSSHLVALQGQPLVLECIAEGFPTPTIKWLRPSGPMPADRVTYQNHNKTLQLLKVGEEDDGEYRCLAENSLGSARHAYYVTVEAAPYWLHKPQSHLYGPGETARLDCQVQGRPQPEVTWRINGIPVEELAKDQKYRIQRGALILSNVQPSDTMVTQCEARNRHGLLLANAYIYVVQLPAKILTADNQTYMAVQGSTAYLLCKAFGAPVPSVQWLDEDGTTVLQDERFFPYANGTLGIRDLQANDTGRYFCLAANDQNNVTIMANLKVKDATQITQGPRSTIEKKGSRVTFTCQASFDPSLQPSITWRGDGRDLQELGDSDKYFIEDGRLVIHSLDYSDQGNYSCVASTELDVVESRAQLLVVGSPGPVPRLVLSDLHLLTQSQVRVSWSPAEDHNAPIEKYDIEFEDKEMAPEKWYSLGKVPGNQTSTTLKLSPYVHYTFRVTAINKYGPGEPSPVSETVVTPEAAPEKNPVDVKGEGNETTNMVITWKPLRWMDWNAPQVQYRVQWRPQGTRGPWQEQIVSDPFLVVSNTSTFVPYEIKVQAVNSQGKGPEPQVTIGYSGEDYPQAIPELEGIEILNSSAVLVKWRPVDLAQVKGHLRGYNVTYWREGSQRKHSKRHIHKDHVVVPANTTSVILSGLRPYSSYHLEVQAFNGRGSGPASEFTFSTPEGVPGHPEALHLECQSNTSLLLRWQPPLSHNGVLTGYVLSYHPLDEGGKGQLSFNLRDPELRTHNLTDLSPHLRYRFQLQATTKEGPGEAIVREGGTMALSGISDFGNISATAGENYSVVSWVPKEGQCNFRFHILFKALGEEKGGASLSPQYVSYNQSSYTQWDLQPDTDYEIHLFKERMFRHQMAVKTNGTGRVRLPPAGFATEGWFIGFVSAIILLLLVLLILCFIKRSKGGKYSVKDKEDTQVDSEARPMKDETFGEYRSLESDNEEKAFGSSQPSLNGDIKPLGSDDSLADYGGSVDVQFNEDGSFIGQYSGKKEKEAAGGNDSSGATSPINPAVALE
Source text: FIG. 3H is a schematic showing the design of the cell surface interaction assay.

[3] = target: B2; assay: as above
[4] = target: T2, PD-L2 extracellular domain; assay: extracellular interaction screen, normalized intensity; labelled dot against the clone named on the axis; which is query and which prey is not given; colour of the predicted class lost

Binder: B1
binding result [1]: binds

Binder: B2
binding result [2]: binds

Binder: B3
binding result [3]: binds

Binder: B4
binding result [4]: binds
